Reference: patent US20100297101A1 (Scripps Research, published 2010)
Bridges are numbered along the chain shown (N, C = ends). Where no end group is shown, it is not given here.

Columns and labels:
[1] = target: human integrin αIIbβ3 (purified, Enzyme Research Laboratories) (human) (UniProt P08514); assay: competitive ELISA: inhibition of biotinylated human fibrinogen binding to immobilised human integrin αIIbβ3
[2] = target: native integrin αIIbβ3 expressed on the surface of human platelets (human) (UniProt P08514); assay: cell-based or functional assay
[3] = target: T1, human integrin αIIbβ3 (purified, Enzyme Research Laboratories) (human, UniProt P08514 32-1039; P05106 27-788); assay: competitive ELISA: inhibition of biotinylated fibrinogen binding to immobilised integrin αIIbβ3
T1 construct: Bought protein, coated on ELISA plates or used in solution; also called integrin αIIββ3; GPIIb/IIIa

Fab abciximab (ReoPro), sequence (VH): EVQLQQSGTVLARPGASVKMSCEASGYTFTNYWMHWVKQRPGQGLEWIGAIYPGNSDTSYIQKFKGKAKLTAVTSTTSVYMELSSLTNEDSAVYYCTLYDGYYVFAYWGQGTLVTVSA
Fab abciximab (ReoPro), sequence (VL): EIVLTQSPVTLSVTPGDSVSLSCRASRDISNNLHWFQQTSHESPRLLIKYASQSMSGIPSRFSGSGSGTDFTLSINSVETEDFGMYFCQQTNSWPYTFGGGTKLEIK

| Molecule | IC50 [1] [µM] | EC50, required concentration for 50% inhibition in a human platelet aggregation assay [2] [µM] | IC50 [3] [µM] |
| --- | --- | --- | --- |
| VWCRADRRC (disulfide 3-9 (inferred); not fully specified) [cyclic peptide VWCRADRRC] | – | – | 1.2 |
| VVCRADRRC (disulfide 3-9 (inferred), Synthetic nonapeptide (Peptron)) [cyclic peptide VVCRADRRC] | – | – | 11 |

Further lines, results first:

| IC50 [1] [µM] | EC50, required concentration for 50% inhibition in a human platelet aggregation assay [2] [µM] | IC50 [3] [µM] | Molecule |
| --- | --- | --- | --- |
| 0.09 | 0.045 | – | Fab abciximab (ReoPro) |
| – | – | 4.2 | VWCRADKRC (disulfide 3-9 (inferred)) [cyclic peptide VWCRADKRC] |
